{"source": "patent US20140221271A1", "molecules": {"B1": {"name": "ShK-221-gadolinium (DOTA-conjugate of ShK-198 coordinated with gadolinium) (peptide)", "peptide": "RSCIDTIPKSRCTAFQCKHSMKYRLSFCRKTCGTC", "modifications": "not checked"}, "B2": {"name": "ShK-221-indium (DOTA-conjugate of ShK-198 coordinated with indium) (peptide)", "peptide": "RSCIDTIPKSRCTAFQCKHSMKYRLSFCRKTCGTC", "modifications": "not checked"}}, "key": {"Kv1.3 K+ ion channel [1]": {"biological_target": "Kv1.3 K+ ion channel", "test": "cell-based or functional assay"}, "Kv1.3 K+ ion channel [2]": {"biological_target": "Kv1.3 K+ ion channel", "test": "cell-based or functional assay", "remark": "listed apart in the source"}}, "note": "Where two headings read alike, the source gives them in different places.", "data": [{"molecule": "ShK-186 ((phospho-Tyr)-AEEA-ShK-NH2) (peptide)", "values": [{"measurement": "IC50, reduction in peak whole-cell Kv1.3 current at 40 mV (patch-clamp)", "setting": "Kv1.3 K+ ion channel [1]", "value": 0.069, "unit": "nM"}]}, {"molecule": "B1", "values": [{"measurement": "IC50, reduction in peak whole-cell Kv1.3 current at 40 mV (patch-clamp)", "setting": "Kv1.3 K+ ion channel [2]", "value": 0.0582, "unit": "nM"}]}, {"molecule": "B2", "values": [{"measurement": "IC50, reduction in peak whole-cell Kv1.3 current at 40 mV (patch-clamp)", "setting": "Kv1.3 K+ ion channel [2]", "value": 0.0638, "unit": "nM"}]}]}
